# Experiment: soluble on expression in E. coli; label from the status in PepcDB or PDB records
row,Sequence,soluble on expression in E. coli
1,MALNNFLTFQLLLLLLRVSSESPWIVAGDVSRIPINFLELAKSPEVFDSMVRIRRKIHENPELGYEEFETSKFIRSELDLIGVKYRFPVAITGIIGYIGTGEPPFVALRADMDALPIQEAVEWEHKSKNPGKMHACGHDGHVAMLLGAAKILQQHRQHLQGTVVLIFQPAEEGLSGAKMMREEGALKNVEAIFGIHLSPRTPFGKAASLAGSFMAGAGAFEAVITGKGGHAAIPQHTIDPVVAASSIVLSLQHLVSRETDPSDSKVVTVTKVNGGNAFNVIPDSITIGGTLRAFTGFTQLQERIKEIITKQAAVHRCNASVNLAPNGNQPMPPTVNNMDLYKKFKKVVRDLLGQEAFVEAVPEMGSEDFSYFAETIPGHFSLLGMQDETQGYASSHSPHYRINEDVLPYGAAIHATMAVQYLKDKASKGSVSGFHDEL,soluble
2,MNRYDRAITIFSPDGHLFQVEYAQEAVKKGSTAVGVRGKDCIVIGVEKKSIPALQDDRTIRKIHMIDDHVMLAFAGLSADARVLVDRARIECQSYKLTLEDPVTVAYISRYIANTKQRFTQSPGRRPFGISMLIGGFDHDGTPRLFKTEPSGAYYEYVANATGRGEKPVREYLEEQYSEENTVDEATTLKLVVKSLAQVVPPGSQNIEIAVMKKVNDELQQRVLSTEEIEALLKVVETERVAAEAEEAASKKK,not soluble
3,GPGSMLRATILARGTLVKIGRGPNNVTESASNALLESLQDHGYCYIQHPFIQKTILDQLHRDCRIFFEQYVLHLHDAAAQGSLKRNNLHNYNCTQLSPYELESIKSPSGFRGYYRYVGASGIDDAIECFSVGRDDVADPAVLRRDYYKQAGWEESEYLSMISRRNPWDILLNHVNSIPASGSGIVPGMDRNDNFMSDFKDMMMAYYDLCYTVSMDVMRHISCGLGIRPSIPQGGSDPTMDFELEYFTSFHQKRDCDLQAKYYPQLGAGARLKNGVDIQNQRSAHNPDGVKVLRRKGAKTQPLVRTASTEDGDGEKDVTVRLDTHKDLSTITLLSQDSLGGLEVWDEEKASYMAVPVLEDALLVNAGLFLEKWTGGLIEATPHRVRNAKGGSSRCSIVFFALPDHDARIEPLLQQEDNPAVDAQDSFLAGDMMPAP,not soluble
4,MGRHLRLPSGTKLIVARNQGEVNFLKGFRNRYNYAYRKDGKGTFALIKGNPPEEELQLIADIIARYSKNEPAKVGIHLNGKEIELIGNPPSDEFLEQFKIYAKKEVGHGR,not soluble
5,MQKTIYDVSFINGEVKTFTPLMLDNVMAEKELVARGGNIRENSIEFMAILTHKVCRRTYRENTPLDLDIFLESVLDIDTRVEEVTTFPEQNLDAHGPEPRHRT,not soluble
6,MSSEKEYVEMLDRLYSKLPEKGRKEGTQSLPNMIILNIGNTTIIRNFAEYCDRIRREDKICMKYLLKELAAPGNVDDKGELVIQGKFSSQVINTLMERFLKAYVECSTCKSLDTILKKEKKSWYIVCLACGAQTPVKPL,soluble
7,MRNNGALGLTSKSLKNDKIMNVRTKDRGEPSTVKFSPDGRLCAMQRTPTTADVVFLEKTETSLCLELTVNTKSKEPLLAVEWVTNNQLLLVNNHSAELLYINEDKKSSKLLKATNVNAAWAIYYAPSQLLLIANGQSCSYLQPFVVTHSQFTRMKGFEVDFGGSISKENFLEKDAAIATIYGRVYVLVFKYSNRNATVLDLYELPFDAATGPSFKHSLILGFNGGCGIHVIDNLVVVHHQASQKSLIFDIRVSSPSKSHSPLVVTTIESHPQHQPPPALYTNFWFTFLPDIVIDSSGGVMYSIRLKNEHAQLEIADKQTMLEYLARRSNEKKLFVTTLLACLKARALSLRQIRKVFAMLTGVTGKSKSSFFCNGNFKLRQMANLPICRRCSISANCRFAGNFQIRQISDLAEIFIFSKFSVLPETCNSGKLIICRFAGDEEVSLPESYVANIMLQYLRSLFDAEITPEAYLIEMVVETLAEAGEMSKLQQIVTYRVINDSKPLAFLLLSYEARCSTLFQSGVDILARNKASDEIVEVMLEKKQIVDAFRFIDVRNLNDALIPKVVEAANQHCVRQTRYAIKEHLTEKKAKASLYKSIGDELYTAEEVKGASEEQATCALFEI,not soluble
8,MGSDKIHHHHHHMESTRRIYASPSYEVYGLSRNPFIELASEGIEDIESIHVYQEVDMRISSLISDVIGNRSSITLSIVGPLGMGKTQRLKSIARVIEDRGGKVIYIKVDTTDVLKITRDIFASLRPPKNRTNVFLENLSRKLGFITRLEKMLSSTDEYKSRDIAEMLTRELSKYQYSALLLDELENMRGATEKEKILFFEMLRHFISNMPPGCVFAFASIPEAYEEYSSQFPAFFMRLHYEFKLRPMSYQEIIELVKKRLAKVRIRDTADPLYPFTEDAIKLIHELGKGNPRQILRLLNYVLSEAVKHKFDPINEYVVTTILEEPKSLEEYIARIPSDFKDLVKVIVEKFEGGPVSYIQIAKELKIPGMEAYEKLEHLVSLGFLVGDPRGNYKVPDYVRKFLEEKGE,not soluble
